Results taken from US20240343814A1.

Legend:
[1] = target: Recombinant human his-tagged IGF 1R extracellular domain protein (human) (UniProt P08069); assay: SPR, captured IgG, IGF-1R ECD-his analyte, dissociation pH 7.4
[2] = target: Recombinant human his-tagged IGF 1R extracellular domain protein (human) (UniProt P08069); assay: SPR, captured IgG, IGF-1R ECD-his analyte, dissociation pH 6

Row | Kd [1] | koff [1] | kon [1] | Kd [2] | koff [2] | kon [2] | Binder
1 | 0.0051 nM | 1e-06 s⁻¹ | 196000 M⁻¹ s⁻¹ | 0.0393 nM | 1.17e-06 s⁻¹ | 29800 M⁻¹ s⁻¹ | VRDN-02534 (antibody, V domains shown) VH: EVQLVQSGGGLVKPGGSLRLSCAASGFTFSSFAMHWVRQAPGKGLEWISVIDTRGATYYADSVKGRFTISRDNAKNSLYLQMNSLRAEDTAVYYCARLGNFYYGMDVWGQGTTVTVSS VL: EIVLTQSPGTLSVSPGERATLSCRASQSIHSSLHWYQQKPGQAPRLLIKYASQSLSGIPDRFSGSGSGTDFTLTISRLEPEDFAVYYCHQSSRLPHTFGQGTKVEIK
2 | 0.622 nM | 3.03e-05 s⁻¹ | 48700 M⁻¹ s⁻¹ | 0.027 nM | 1e-06 s⁻¹ | 37000 M⁻¹ s⁻¹ | VRDN-02545 (antibody, V domains shown) VH: EVQLVQSGGGLVKPGGSLRLSCAASGFTFSSFAMHWVRQAPGKGLEWISVIDTRGATYYADSVKGRFTISRDNAKNSLYLQMNSLRAEDTAVYYCARLGNFYYGMDVWGQGTTVTVSS VL: EIVLTQSPGTLSVSPGERATLSCRASQSIGSSLHWYQQKPGQAPRLLIKYASQSLHGIPDRFSGSGSGTDFTLTISRLEPEDFAVYYCHQSSRLPHTFGQGTKVEIK
3 | 0.721 nM | 8.72e-05 s⁻¹ | 121000 M⁻¹ s⁻¹ | 0.0251 nM | 1e-06 s⁻¹ | 39800 M⁻¹ s⁻¹ | VRDN-02548 (antibody, V domains shown) VH: EVQLVQSGGGLVKPGGSLRLSCAASGFTFSSFAMHWVRQAPGKGLEWISVIDTRGATYYADSVKGRFTISRDNAKNSLYLQMNSLRAEDTAVYYCARLGNFYYGMDVWGQGTTVTVSS VL: EIVLTQSPGTLSVSPGERATLSCRASQSIGSSLHWYQQKPGQAPRLLIKYASQSLSGIPDRFSGSGSGTDFTLTISRLEPEDFAVYYCHQSHRLPHTFGQGTKVEIK
4 | 0.363 nM | 4.07e-05 s⁻¹ | 112000 M⁻¹ s⁻¹ | 0.0273 nM | 1e-06 s⁻¹ | 36600 M⁻¹ s⁻¹ | VRDN-02535 (antibody, V domains shown) VH: EVQLVQSGGGLVKPGGSLRLSCAASGFTFSSFAMHWVRQAPGKGLEWISVIDTRGATYYADSVKGRFTISRDNAKNSLYLQMNSLRAEDTAVYYCARLGNFYYGMDVWGQGTTVTVSS VL: EIVLTQSPGTLSVSPGERATLSCRASQSIGHSLHWYQQKPGQAPRLLIKYASQSLSGIPDRFSGSGSGTDFTLTISRLEPEDFAVYYCHQSSRLPHTFGQGTKVEIK
5 | 0.483 nM | 6.18e-05 s⁻¹ | 128000 M⁻¹ s⁻¹ | 0.0275 nM | 1e-06 s⁻¹ | 36300 M⁻¹ s⁻¹ | VRDN-02544 (antibody, V domains shown) VH: EVQLVQSGGGLVKPGGSLRLSCAASGFTFSSFAMHWVRQAPGKGLEWISVIDTRGATYYADSVKGRFTISRDNAKNSLYLQMNSLRAEDTAVYYCARLGNFYYGMDVWGQGTTVTVSS VL: EIVLTQSPGTLSVSPGERATLSCRASQSIGSSLHWYQQKPGQAPRLLIKYASQSHSGIPDRFSGSGSGTDFTLTISRLEPEDFAVYYCHQSSRLPHTFGQGTKVEIK
6 | 0.00746 nM | 1e-06 s⁻¹ | 134000 M⁻¹ s⁻¹ | 0.0228 nM | 1e-06 s⁻¹ | 43900 M⁻¹ s⁻¹ | VRDN-02536 (antibody, V domains shown) VH: EVQLVQSGGGLVKPGGSLRLSCAASGFTFSSFAMHWVRQAPGKGLEWISVIDTRGATYYADSVKGRFTISRDNAKNSLYLQMNSLRAEDTAVYYCARLGNFYYGMDVWGQGTTVTVSS VL: EIVLTQSPGTLSVSPGERATLSCRASQSIGSHLHWYQQKPGQAPRLLIKYASQSLSGIPDRFSGSGSGTDFTLTISRLEPEDFAVYYCHQSSRLPHTFGQGTKVEIK
7 | 0.802 nM | 7.16e-05 s⁻¹ | 89300 M⁻¹ s⁻¹ | 0.036 nM | 1e-06 s⁻¹ | 27800 M⁻¹ s⁻¹ | VRDN-02537 (antibody, V domains shown) VH: EVQLVQSGGGLVKPGGSLRLSCAASGFTFSSFAMHWVRQAPGKGLEWISVIDTRGATYYADSVKGRFTISRDNAKNSLYLQMNSLRAEDTAVYYCARLGNFYYGMDVWGQGTTVTVSS VL: EIVLTQSPGTLSVSPGERATLSCRASQSIGSSHHWYQQKPGQAPRLLIKYASQSLSGIPDRFSGSGSGTDFTLTISRLEPEDFAVYYCHQSSRLPHTFGQGTKVEIK
8 | 0.00588 nM | 1e-06 s⁻¹ | 170000 M⁻¹ s⁻¹ | 21.6 nM | 0.000584 s⁻¹ | 27000 M⁻¹ s⁻¹ | VRDN-02539 (antibody, V domains shown) VH: EVQLVQSGGGLVKPGGSLRLSCAASGFTFSSFAMHWVRQAPGKGLEWISVIDTRGATYYADSVKGRFTISRDNAKNSLYLQMNSLRAEDTAVYYCARLGNFYYGMDVWGQGTTVTVSS VL: EIVLTQSPGTLSVSPGERATLSCRASQSIGSSLHWYQQKPGQAPRLLIKHASQSLSGIPDRFSGSGSGTDFTLTISRLEPEDFAVYYCHQSSRLPHTFGQGTKVEIK
9 | 0.434 nM | 4.25e-05 s⁻¹ | 97900 M⁻¹ s⁻¹ | 0.0662 nM | 1e-06 s⁻¹ | 15100 M⁻¹ s⁻¹ | VRDN-02540 (antibody, V domains shown) VH: EVQLVQSGGGLVKPGGSLRLSCAASGFTFSSFAMHWVRQAPGKGLEWISVIDTRGATYYADSVKGRFTISRDNAKNSLYLQMNSLRAEDTAVYYCARLGNFYYGMDVWGQGTTVTVSS VL: EIVLTQSPGTLSVSPGERATLSCRASQSIGSSLHWYQQKPGQAPRLLIKYHSQSLSGIPDRFSGSGSGTDFTLTISRLEPEDFAVYYCHQSSRLPHTFGQGTKVEIK
10 | 0.00535 nM | 1e-06 s⁻¹ | 187000 M⁻¹ s⁻¹ | 0.0389 nM | 1e-06 s⁻¹ | 25700 M⁻¹ s⁻¹ | VRDN-02542 (antibody, V domains shown) VH: EVQLVQSGGGLVKPGGSLRLSCAASGFTFSSFAMHWVRQAPGKGLEWISVIDTRGATYYADSVKGRFTISRDNAKNSLYLQMNSLRAEDTAVYYCARLGNFYYGMDVWGQGTTVTVSS VL: EIVLTQSPGTLSVSPGERATLSCRASQSIGSSLHWYQQKPGQAPRLLIKYASHSLSGIPDRFSGSGSGTDFTLTISRLEPEDFAVYYCHQSSRLPHTFGQGTKVEIK
11 | 0.0084 nM | 1e-06 s⁻¹ | 119000 M⁻¹ s⁻¹ | 0.0251 nM | 1e-06 s⁻¹ | 39800 M⁻¹ s⁻¹ | VRDN-02547 (antibody, V domains shown) VH: EVQLVQSGGGLVKPGGSLRLSCAASGFTFSSFAMHWVRQAPGKGLEWISVIDTRGATYYADSVKGRFTISRDNAKNSLYLQMNSLRAEDTAVYYCARLGNFYYGMDVWGQGTTVTVSS VL: EIVLTQSPGTLSVSPGERATLSCRASQSIGSSLHWYQQKPGQAPRLLIKYASQSLSGIPDRFSGSGSGTDFTLTISRLEPEDFAVYYCHQHSRLPHTFGQGTKVEIK
12 | 0.131 nM | 2.09e-05 s⁻¹ | 160000 M⁻¹ s⁻¹ | 0.027 nM | 1e-06 s⁻¹ | 37000 M⁻¹ s⁻¹ | VRDN-02550 (antibody, V domains shown) VH: EVQLVQSGGGLVKPGGSLRLSCAASGFTFSSFAMHWVRQAPGKGLEWISVIDTRGATYYADSVKGRFTISRDNAKNSLYLQMNSLRAEDTAVYYCARLGNFYYGMDVWGQGTTVTVSS VL: EIVLTQSPGTLSVSPGERATLSCRASQSIGSSLHWYQQKPGQAPRLLIKYASQSLSGIPDRFSGSGSGTDFTLTISRLEPEDFAVYYCHQSSRHPHTFGQGTKVEIK
13 | 5.08 nM | 0.000186 s⁻¹ | 36600 M⁻¹ s⁻¹ | 0.0242 nM | 1e-06 s⁻¹ | 41300 M⁻¹ s⁻¹ | VRDN-02504 (antibody, V domains shown) VH: EVQLVQSGGGLVKPGGSLRLSCAASGFTHSSFAMHWVRQAPGKGLEWISVIDTRGATYYADSVKGRFTISRDNAKNSLYLQMNSLRAEDTAVYYCARLGNFYYGMDVWGQGTTVTVSS VL: EIVLTQSPGTLSVSPGERATLSCRASQSIGSSLHWYQQKPGQAPRLLIKYASQSLSGIPDRFSGSGSGTDFTLTISRLEPEDFAVYYCHQSSRLPHTFGQGTKVEIK
14 | 0.391 nM | 4.38e-05 s⁻¹ | 112000 M⁻¹ s⁻¹ | 0.025 nM | 1e-06 s⁻¹ | 40000 M⁻¹ s⁻¹ | VRDN-02543 (antibody, V domains shown) VH: EVQLVQSGGGLVKPGGSLRLSCAASGFTFSSFAMHWVRQAPGKGLEWISVIDTRGATYYADSVKGRFTISRDNAKNSLYLQMNSLRAEDTAVYYCARLGNFYYGMDVWGQGTTVTVSS VL: EIVLTQSPGTLSVSPGERATLSCRASQSIGSSLHWYQQKPGQAPRLLIKYASQHLSGIPDRFSGSGSGTDFTLTISRLEPEDFAVYYCHQSSRLPHTFGQGTKVEIK
15 | 0.327 nM | 3.89e-05 s⁻¹ | 119000 M⁻¹ s⁻¹ | 0.0251 nM | 1e-06 s⁻¹ | 39800 M⁻¹ s⁻¹ | VRDN-02549 (antibody, V domains shown) VH: EVQLVQSGGGLVKPGGSLRLSCAASGFTFSSFAMHWVRQAPGKGLEWISVIDTRGATYYADSVKGRFTISRDNAKNSLYLQMNSLRAEDTAVYYCARLGNFYYGMDVWGQGTTVTVSS VL: EIVLTQSPGTLSVSPGERATLSCRASQSIGSSLHWYQQKPGQAPRLLIKYASQSLSGIPDRFSGSGSGTDFTLTISRLEPEDFAVYYCHQSSHLPHTFGQGTKVEIK
16 | 0.00654 nM | 1e-06 s⁻¹ | 153000 M⁻¹ s⁻¹ | 0.028 nM | 1e-06 s⁻¹ | 35700 M⁻¹ s⁻¹ | VRDN-02541 (antibody, V domains shown) VH: EVQLVQSGGGLVKPGGSLRLSCAASGFTFSSFAMHWVRQAPGKGLEWISVIDTRGATYYADSVKGRFTISRDNAKNSLYLQMNSLRAEDTAVYYCARLGNFYYGMDVWGQGTTVTVSS VL: EIVLTQSPGTLSVSPGERATLSCRASQSIGSSLHWYQQKPGQAPRLLIKYAHQSLSGIPDRFSGSGSGTDFTLTISRLEPEDFAVYYCHQSSRLPHTFGQGTKVEIK
17 | 0.491 nM | 5.94e-05 s⁻¹ | 121000 M⁻¹ s⁻¹ | 0.0259 nM | 1e-06 s⁻¹ | 38600 M⁻¹ s⁻¹ | VRDN-02546 (antibody, V domains shown) VH: EVQLVQSGGGLVKPGGSLRLSCAASGFTFSSFAMHWVRQAPGKGLEWISVIDTRGATYYADSVKGRFTISRDNAKNSLYLQMNSLRAEDTAVYYCARLGNFYYGMDVWGQGTTVTVSS VL: EIVLTQSPGTLSVSPGERATLSCRASQSIGSSLHWYQQKPGQAPRLLIKYASQSLSGIPDRFSGSGSGTDFTLTISRLEPEDFAVYYCHHSSRLPHTFGQGTKVEIK
